Measurements published in patent publication US20110159022A1, “Immunogenic Peptides Derived from the Midkine Protein, as an Anticancer Vaccine” (priority 2008, published 2011).
Numbering of substitutions follows the chain as printed.

Columns and labels:
HLA-DRB3 (DRB3*0101) = HLA-DRB3 (DRB3*0101) (Homo sapiens, UniProt P01903+P79483); experiment: HLA II/peptide competition binding assay, DRB3; conditions: ratio of IC50 of competitor peptide to IC50 of reference peptide; mean of at least two independent experiments; less than 100 = active
HLA-DR13 (DRB1*1301) = HLA-DR13 (DRB1*1301) (Homo sapiens, UniProt P01903+P01911, A100E/A169T/K41T/L162R/M171V/P40S/Q125H/Q178H/Q39Y/Q99D/R42S/S66N/T262R/W38E/Y61H); experiment: HLA II/peptide competition binding assay, DR13; conditions: ratio of IC50 of competitor peptide to IC50 of reference peptide; mean of at least two independent experiments; less than 100 = active
HLA-DRB4 (DRB4*0101) = HLA-DRB4 (DRB4*0101) (Homo sapiens, UniProt P01903+P13762, G164S); experiment: HLA II/peptide competition binding assay, DRB4; conditions: ratio of IC50 of competitor peptide to IC50 of reference peptide; mean of at least two independent experiments; less than 100 = active
HLA-DR3 (DRB1*0301) = HLA-DR3 (DRB1*0301) (Homo sapiens, UniProt P01903+P01911, A100K/A102G/A103R/A169T/F55Y/I96L/K41T/L162R/M171V/P40S/Q125H/Q178H/Q39Y/R42S/S66N/T106N/T262R/W38E/Y61H); experiment: HLA II/peptide competition binding assay, DR3; conditions: ratio of IC50 of competitor peptide to IC50 of reference peptide; mean of at least two independent experiments; less than 100 = active
HLA-DR4 (DRB1*0401) = HLA-DR4 (DRB1*0401) (Homo sapiens, UniProt P01903+P01911, A100K/A169T/F76Y/I96L/K127E/L162R/M171V/N62H/P40V/Q125Y/R42H/S133A/S149N/S66Y/V115G/V209L/W38E); experiment: HLA II/peptide competition binding assay, DR4; conditions: ratio of IC50 of competitor peptide to IC50 of reference peptide; mean of at least two independent experiments; less than 100 = active
HLA-DR15 (DRB1*1501) = HLA-DR15 (DRB1*1501) (Homo sapiens, UniProt P01903+P01911); experiment: HLA II/peptide competition binding assay, DR15; conditions: ratio of IC50 of competitor peptide to IC50 of reference peptide; mean of at least two independent experiments; less than 100 = active
HLA-DP402 (DPB1*0402) = biological target: T1, HLA-DP402 (DPB1*0402) (Homo sapiens, UniProt P04440+P20036, A65V/A84D/A85E/L207M); type: binding; conditions: ratio of IC50 of competitor peptide to IC50 of reference peptide; mean of at least two independent experiments; less than 100 = active
T1 sequence (P04440 30-258 A65V/A84D/A85E): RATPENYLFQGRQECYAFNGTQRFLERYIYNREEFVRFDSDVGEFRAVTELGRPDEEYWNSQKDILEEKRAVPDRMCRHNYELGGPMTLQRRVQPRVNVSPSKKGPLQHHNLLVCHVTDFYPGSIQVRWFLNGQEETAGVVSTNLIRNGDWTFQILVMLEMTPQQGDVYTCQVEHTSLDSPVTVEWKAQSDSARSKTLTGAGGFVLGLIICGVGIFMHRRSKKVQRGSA
T1 sequence (P20036 29-260): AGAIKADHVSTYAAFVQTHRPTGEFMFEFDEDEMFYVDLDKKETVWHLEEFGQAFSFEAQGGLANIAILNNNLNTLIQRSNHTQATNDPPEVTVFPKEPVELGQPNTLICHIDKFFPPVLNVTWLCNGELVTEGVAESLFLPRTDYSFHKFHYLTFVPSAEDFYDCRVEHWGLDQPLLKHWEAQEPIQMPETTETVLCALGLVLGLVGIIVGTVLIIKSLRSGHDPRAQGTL

HLA-DP401 (DPB1*0401) = biological target: T2, HLA-DP401 (DPB1*0401) (Homo sapiens, UniProt P04440+P20036); type: binding; conditions: ratio of IC50 of competitor peptide to IC50 of reference peptide; mean of at least two independent experiments; less than 100 = active
T2 sequence (P04440 30-258): T1 sequence (P04440 30-258 A65V/A84D/A85E) with V36A, D55A, E56A
T2 sequence (P20036 29-260): T1 sequence (P20036 29-260)

[1] = tested on: 12 predominant HLA II molecules; experiment: HLA II/peptide binding assays, count over the panel; design: species or system human; conditions: relative activity of less than 100 characterizes the active peptides
Description: The assays for binding to HLA II molecules are competition binding assays with immunoenzymatic visualization, as described in U.S. Pat. No. 6,649,166 and PCT international application WO 03/040299, respectively, for the HLA-DR and HLA-DP4 molecules. The implementation of these assays for measuring the binding activity of peptides derived from various antigens is illustrated in U.S. Pat. No. 6,649,166 and PCT international applications WO 02/090382, WO 03/040299 and WO 2004/014936.
The sensitivity of each test is reflected by the IC50 values observed with the nonbiotinylated peptides which correspond to the tracers. […] The results are expressed in the form of relative activity (ratio of the IC50 of the competitor peptide to that of the reference peptide (nonbiotinylated peptide which corresponds to the tracer)). A relative activity of less than 100 characterizes the active peptides.

[2] = tested on: CD8^+ T lymphocytes of healthy individuals possessing the HLA-A2 molecule; experiment: In vitro induction of peptide-specific CD8+ T lymphocyte lines, IFN-γ Elispot; type: cell-based, human; conditions: for Ability to induce an in vitro CD8+ T lymphocyte response: cells from healthy HLA-A2 individuals, 4 weeks of culture
Method: The PBMCs were then cultured in AIM V medium (Life Technologies) and incubated overnight at 37° C. in the presence of 5% CO2/95% air. The CD8^+ T lymphocytes were purified from the nonadherent cells by immunomagnetic sorting, and frozen. The adherent cells were differentiated into immature dendritic cells by culturing for 5 days in AIM V medium containing 1000 U/ml of GM-CSF and 1000 U/ml of IL-4, and then into mature dendritic cells by culturing for 2 days in the presence of 1 μg/ml of LPS, 1000 U/ml of IL-4 and 1000 U/ml of GM-CSF. The mature dendritic cells were incubated in the presence of 5 μg/ml of beta-2-microglobulin and 10 μg/ml of each of the peptides of table IV. After 4 hours, the cells were washed and then placed in culture in 96-well plates, in the presence of purified CD8 T lymphocytes in IMDM medium containing 10% of group AB human serum, IL-6 (1000 U/ml) and IL-12 (5 ng/ml). Each week, the culture was restimulated with autologous mature dendritic cells loaded with the peptide mixture mentioned above, in medium containing 20 U/ml of IL-2 and 10 ng/ml of IL-7. After 4 weeks of culture, the specificity of the T cell lines contained in each well was tested by IFN-γ Elispot.
Anti-IFN-γ antibodies (1-D1K, Mabtech) diluted to 2.5 μg/ml in PBS buffer were adsorbed onto nitrocellulose plates (Millipore) for 1 hour at 37° C. The plates were then washed with PBS and then saturated with Iscove medium containing 10% of group AB human serum (100 μg/well), for 2 h at 37° C.
In order to verify the specificity of the lines with respect to the HLA-A2 molecule, the C1R cells transfected with HLA-A2 (30 000 cells/well) and 5000 test lymphocytes were then added to the plates and incubated for 24 h at 37° C., in the presence or absence of a single peptide (10 μg of peptide) or of a mixture of peptides (10 μg of each peptide). For the dose-response analyses, the peptides are used at various concentrations ranging from 0.001 to 10 μg/ml.
After three successive washes with water, PBS buffer/0.05% Tween and PBS alone, 100 μl of biotinylated anti-IFN-γ secondary antibody (7-B6-1-biotin, Mabtech), diluted to 0.25 μg/ml in PBS containing 1% BSA, were added to each well. After one hour of incubation at ambient temperature, the plates were washed again and then incubated for one hour at ambient temperature with 100 μg/well of Extravidin-AKP (E-2636, Sigma), diluted to 1/6000. After washing of the plates in PBS buffer, 100 μl of NBT/BCIP substrate B-5655, Sigma), diluted in water (1 tablet in 10 ml of water), were distributed in each well. The immunoenzymatic visualization was stopped after approximately 10 minutes, by thorough rinsing of the plates in water. After drying of the plates, the colored spots were counted using an automatic reader (AID). The lines are considered to be positive when the number of spots is more than three times that obtained with the negative control (control without peptides) with a minimum of 50 spots. The control without presenting cells makes it possible to verify the specificity of the response for HLA-A2 (restriction control).

Substance	Relative binding activity, DR13 (HLA-DR13 (DRB1*1301))	Relative binding activity, DR3 (HLA-DR3 (DRB1*0301))	Relative binding activity, DR4 (HLA-DR4 (DRB1*0401))	Relative binding activity, DR15 (HLA-DR15 (DRB1*1501))	Total (number of the 12 predominant HLA II molecules bound) [1]	Ability to induce an in vitro CD8+ T lymphocyte response [2]	further results
E T I R V T K P C T P K T K A (ETIRVTKPCTPKTKA) [MDK 119-133]	>2 537	>419	1 289	>529	–	–	Relative binding activity, DRB3 (HLA-DRB3 (DRB3*0101)): >485; Relative binding activity, DRB4 (HLA-DRB4 (DRB4*0101)): >28 868; Relative binding activity, DP402 (HLA-DP402 (DPB1*0402)): >976; Relative binding activity, DP401 (HLA-DP401 (DPB1*0401)): >879
L L A L T S A V A K K K D K V (LLALTSAVAKKKDKV; MDK 14-28 peptide)	–	>419	–	>529	4	–	Relative binding activity, DRB3 (HLA-DRB3 (DRB3*0101)): >485; Relative binding activity, DRB4 (HLA-DRB4 (DRB4*0101)): >28 868; Relative binding activity, DP402 (HLA-DP402 (DPB1*0402)): >976; Relative binding activity, DP401 (HLA-DP401 (DPB1*0401)): >879; Total (number of the 12 predominant HLA II molecules bound) ([1]; listed as 14-28): several
LALLALTSAV (MDK 12-21 peptide)	–	–	–	–	–	induced CD8^+ T lymphocytes	Peptide specificity of CD8+ T lymphocyte line 267.29A ([2]; FIG. 2): specific
LLALTSAVA (MDK 14-22 peptide)	–	–	–	–	–	induced CD8^+ T lymphocytes	Peptide specificity of CD8+ T lymphocyte line 278.11A ([2]; FIG. 2): specific
M Q H R G F L L L T L L A L L (MQHRGFLLLTLLALL; MDK 1-15 peptide)	>2 537	>419	226	211	5	–	Total (number of the 12 predominant HLA II molecules bound) ([1]; listed as 1-15): several
NAQCQETIRV (MDK 113-122 peptide)	–	–	–	–	–	induced CD8^+ T lymphocytes	–
R G F L L L T L L A L L A L T (RGFLLLTLLALLALT; MDK 4-18 peptide)	>2 537	>419	136	–	9	–	Total (number of the 12 predominant HLA II molecules bound) ([1]; listed as 4-18): several
